B1: wild type gp78: full-length wild type human gp78 ubiquitin ligase expressed in cells (protein, listed as Homo sapiens)
chain: MPLLFLERFPWPSLRTYTGLSGLALLGTIISAYRALSQPEAGPGEPDQLTASLQPEPPAPARPSAGGPRARDVAQYLLSDSLFVWVLVNTACCVLMLVAKLIQCIVFGPLRVSERQHLKDKFWNFIFYKFIFIFGVLNVQTVEEVVMWCLWFAGLVFLHLMVQLCKDRFEYLSFSPTTPMSSHGRVLSLLVAMLLSCCGLAAVCSITGYTHGMHTLAFMAAESLLVTVRTAHVILRYVIHLWDLNHEGTWEGKGTYVYYTDFVMELTLLSLDLMHHIHMLLFGNIWLSMASLVIFMQLRYLFHEVQRRIRRHKNYLRVVGNMEARFAVATPEELAVNNDDCAICWDSMQAARKLPCGHLFHNSCLRSWLEQDTSCPTCRMSLNIADNNRVREEHQGENLDENLVPVAAAEGRPRLNQHNHFFHFDGSRIASWLPSFSVEVMHTTNILGITQASNSQLNAMAHQIQEMFPQVPYHLVLQDLQLTRSVEITTDNILEGRIQVPFPTQRSDSIRPALNSPVERPSSDQEEGETSAQTERVPLDLSPRLEETLDFGEVEVEPSEVEDFEARGSRFSKSADERQRMLVQRKDELLQQARKRFLNKSSEDDAASESFLPLEGASSDPVTLRRRMLAAAAERRLQKQQTS
B2: gp78595: gp78 truncated after amino acid 595 of SEQ ID NO:2 (protein, listed as Homo sapiens)
chain: MPLLFLERFPWPSLRTYTGLSGLALLGTIISAYRALSQPEAGPGEPDQLTASLQPEPPAPARPSAGGPRARDVAQYLLSDSLFVWVLVNTACCVLMLVAKLIQCIVFGPLRVSERQHLKDKFWNFIFYKFIFIFGVLNVQTVEEVVMWCLWFAGLVFLHLMVQLCKDRFEYLSFSPTTPMSSHGRVLSLLVAMLLSCCGLAAVCSITGYTHGMHTLAFMAAESLLVTVRTAHVILRYVIHLWDLNHEGTWEGKGTYVYYTDFVMELTLLSLDLMHHIHMLLFGNIWLSMASLVIFMQLRYLFHEVQRRIRRHKNYLRVVGNMEARFAVATPEELAVNNDDCAICWDSMQAARKLPCGHLFHNSCLRSWLEQDTSCPTCRMSLNIADNNRVREEHQGENLDENLVPVAAAEGRPRLNQHNHFFHFDGSRIASWLPSFSVEVMHTTNILGITQASNSQLNAMAHQIQEMFPQVPYHLVLQDLQLTRSVEITTDNILEGRIQVPFPTQRSDSIRPALNSPVERPSSDQEEGETSAQTERVPLDLSPRLEETLDFGEVEVEPSEVEDFEARGSRFSKSADERQRMLVQRKDELLQQARK
B3: gp78611: gp78 truncated after residue 611 of SEQ ID NO:2 (protein, listed as Homo sapiens)
chain: MPLLFLERFPWPSLRTYTGLSGLALLGTIISAYRALSQPEAGPGEPDQLTASLQPEPPAPARPSAGGPRARDVAQYLLSDSLFVWVLVNTACCVLMLVAKLIQCIVFGPLRVSERQHLKDKFWNFIFYKFIFIFGVLNVQTVEEVVMWCLWFAGLVFLHLMVQLCKDRFEYLSFSPTTPMSSHGRVLSLLVAMLLSCCGLAAVCSITGYTHGMHTLAFMAAESLLVTVRTAHVILRYVIHLWDLNHEGTWEGKGTYVYYTDFVMELTLLSLDLMHHIHMLLFGNIWLSMASLVIFMQLRYLFHEVQRRIRRHKNYLRVVGNMEARFAVATPEELAVNNDDCAICWDSMQAARKLPCGHLFHNSCLRSWLEQDTSCPTCRMSLNIADNNRVREEHQGENLDENLVPVAAAEGRPRLNQHNHFFHFDGSRIASWLPSFSVEVMHTTNILGITQASNSQLNAMAHQIQEMFPQVPYHLVLQDLQLTRSVEITTDNILEGRIQVPFPTQRSDSIRPALNSPVERPSSDQEEGETSAQTERVPLDLSPRLEETLDFGEVEVEPSEVEDFEARGSRFSKSADERQRMLVQRKDELLQQARKRFLNKSSEDDAASESF

How the values were obtained:
Format in all cases: cell-based
gp78 [1] = experiment: gp78 ubiquitylation in transfected cells (IP anti-gp78, IB anti-ubiquitin); conditions: 50 μM MG132 eight hours
Protocol: FIGS. 20A-20E depict the requirement of multiple domains of gp78 to target itself and a heterologous ERAD substrate. (FIG. 20A) Cells were co-transfected with the indicated forms of full length gp78 together with CD3-δ and lysates analyzed by IB. (B) Cells were transfected with wild type and mutant gp78 plasmids as indicated. Samples were treated with 50 μM MG132 for eight hours, lysates IP'ed with anti-gp78 followed by […] with either antiubiquitin (upper) or anti-gp78 (lower). Arrow in upper panel indicates migration of unmodified gp78. (FIGS. 20C and 20D) Cells were co-transfected with HA-CD3-δ and wild type (WT) or mutant forms of gp78. Cells were treated with cycloheximide (CHX) as indicated. (FIG. 20E) Graphic representation of CD3-δ levels from FIGS. 20C and 20D (fall length gp78 transfections only), Cue-m1, 2 is the average of data shown in FIGS. 20C and 20D.
Transfections of HT1080, NIH 3T3 and HEK 293T cells were carried out ˜24 hr after plating using Polyfect (Qiagen, Valencia, Calif.) and cells harvested after ˜48 hr. J558 cells were transfected by electroporation using Bio-rad GENE pulser II at settings of 250 v, 950uF. Vector without insert was used to equalize total plasmid. In most experiments 0.15 μg of pEGFP-C1 served as an internal control. For experiments not involving immunoprecipitation, 6×10^5 cells were plated in 6 well plates and cell lysis was with Mammalian Protein Extraction Reagent (Pierce). For immunoprecipitation, 2.4×10^6 cells were seeded in 100 mm dishes and cells were lysed in RIPA buffer (1×PBS, 1% Nonidet P40. 0.5% sodium deoxycholate, 0.1% SDS). […] Supernatants were analyzed after a 10,000×g centrifugation using standard techniques for immunoprecipitation, SDS-PAGE, immunoblotting and ECL. […]
gp78 is degraded in a proteasome-dependent manner, and deletion of the entire cytoplasmic domain results in its stabilization. […] To determine the significance of the RING finger, Cue domain and Ube2G2 binding site on gp78 stability, mutations of each were evaluated within full-length gp78. […]

ERAD substrate CD3-δ [2] = experiment: Cycloheximide chase of CD3-δ in co-transfected cells; conditions: co-transfection with HA-CD3-δ
Protocol: (§1) Transfections of HT1080, NIH 3T3 and HEK 293T cells were carried out ˜24 hr after plating using Polyfect (Qiagen, Valencia, Calif.) and cells harvested after ˜48 hr. J558 cells were transfected by electroporation using Bio-rad GENE pulser II at settings of 250 v, 950uF. Vector without insert was used to equalize total plasmid. In most experiments 0.15 μg of pEGFP-C1 served as an internal control. For experiments not involving immunoprecipitation, 6×10^5 cells were plated in 6 well plates and cell lysis was with Mammalian Protein Extraction Reagent (Pierce). For immunoprecipitation, 2.4×10^6 cells were seeded in 100 mm dishes and cells were lysed in RIPA buffer (1×PBS, 1% Nonidet P40. 0.5% sodium deoxycholate, 0.1% SDS). Lysis buffers were supplemented with Protease Inhibitor Cocktail (Sigma) and 10 mM iodoacetamide. Supernatants were analyzed after a 10,000×g centrifugation using standard techniques for immunoprecipitation, SDS-PAGE, immunoblotting and ECL. Treatment of cells with MG132 (Sigma) was at 50 μM for eight hr. Cycloheximnide was used at 50 μg/ml. All cells were collected at the end of the six hr chase.
(§2) To evaluate protein turnover in more detail, cycloheximide chase experiments were performed (FIGS. 20C and 20D). […] In agreement with FIG. 20A, CD3-δ degradation was accelerated with wild type gp78 (FIGS. 20C and 20D middle panels; effects of full-length forms of gp78 on CD3-δ from FIGS. 20C and 20D are quantified in FIG. 20E).

ERAD substrate CD3-δ [3] = experiment: CD3-δ level in co-transfected cells by immunoblotting; conditions: co-transfection with CD3-δ; immunoblot
Protocol: as §1
FIG. 7 depicts the stabilization of CD3-δ protein in cells transfected with the G2BD, but not with the G2BD with amino acids 579-584 (of SEQ ID NO:2) mutated. HEK 293T cells were transfected with the ERAD substrate CD3-δ along with the indicated GFP fusions of gp78. The left and right sides are two separate experiments.
To test this, GFP fusions of either a minimal E2 binding domain (GFP-574-611) or a more extended region that includes the C-terminus of gp78 (GFP-574-643) were evaluated (FIG. 21A). […] To assess this further, the C-terminal region of gp78 was fused to the eight amino acid Flag tag. […] Mdm2 is a RING finger E3 for both itself and p53 that is neither an ERAD substrate nor known to utilize Ube2G2 as an E2. […] To establish with certainty that the effect observed with expression of the Ube2G2 binding site is a consequence of binding endogenous E2, and not due to other unanticipated effects, cells were co-transfected with increasing amounts of Ube2G2 (FIG. 21C, lanes 3 and 4). […] These findings clearly establish that the isolated E2 binding site has the potential to markedly alter ERAD of CD3-δ. To ensure the effect observed was not peculiar to one substrate, TCR-α was evaluated (FIG. 21D).

Myc-Ube2G2 = molecular target: T1, Myc-Ube2G2 (Mus musculus, UniProt P60605); experiment: Co-immunoprecipitation with co-expressed Myc-Ube2G2 in cells; conditions: anti-Myc IP, anti-gp78 IB; MG132 8 hr
T1 construct: expressed in transfected cells; host or cells: HEK 293T
T1 sequence (P60605 1-165): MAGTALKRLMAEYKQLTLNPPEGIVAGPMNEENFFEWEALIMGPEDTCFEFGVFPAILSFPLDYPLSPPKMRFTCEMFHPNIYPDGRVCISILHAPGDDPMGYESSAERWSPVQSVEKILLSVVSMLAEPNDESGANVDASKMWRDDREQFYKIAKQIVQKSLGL
Protocol: as §1
FIG. 5 depicts the results of immunoprecipitation of Ube2G2 (MmUbc7) from HEK 293T cells co-transfected with a plasmid encoding myc-tagged MmUbc7/Ube2G2 together with s plasmid encoding various forms of gp78. HEK 293T cells were transfected with a plasmid encoding myc-tagged MmUbc7/Ube2G2 together with plasmids encoding various forms of gp78. After 48 hours, cells were harvested and co-immuntoprecipitated with an anti-Myc tage. Anti-gp78 was used for detection. “R2M” indicates a mutation of two crucial residues in the RING finger. “T” indicates C terminal truncations at the indicated amino acids. ΔB is the mutation indicated above in FIG. 4 in the context of the full length gp78 and “Cue12M” indicates mutations in the Cue domain of gp78.
To confirm the significance of the Ube2G2 binding site in cells, a variety of mutations and truncations of full-length gp78 were tested for binding of co-expressed Myc-Ube2G2 (FIG. 19A). Cells were treated with the proteasome inhibitor MG132 in an attempt to equalize levels of the various forms of gp78.

gp78 [4] = experiment: Cycloheximide chase of gp78 in transfected cells; conditions: compared to wild type gp78
Protocol: as §1, §2

| Molecule | gp78 ubiquitylation (ubiquitin immunoreactivity) (gp78 [1]) | effect on CD3-δ degradation (ERAD substrate CD3-δ [2]) | effect on CD3-δ level (stabilization) (ERAD substrate CD3-δ [3]) | E2 association of full-length gp78 forms with co-expressed Myc-Ube2G2 (Myc-Ube2G2) | gp78 stability (gp78 [4]) |
| --- | --- | --- | --- | --- | --- |
| B1 | ubiquitylation was observed | accelerated | decreased CD3-δ levels |  |  |
| B2 |  | minimal stabilization of CD3-δ |  | loss of E2 binding | stabilized gp78 |
| B3 |  | enhanced loss of CD3-δ |  | retained E2 binding | did not stabilize gp78 |

From patent US8420776B2, “Ube2G2 binding domain in the ubiquitin ligase gp78 and methods of use thereof” (The United States of America, as Represented by the …, priority 2004, dated 2013)
